In patent US20130171217A1, “ENZYMATIC PERACID GENERATION FOR USE IN SKIN CARE PRODUCTS” (E I DU PONT DE NEMOURS AND COMPANY, priority 2010, published 2013):

How the values were obtained:
[1] = Assay for bound perhydrolase enzyme activity after treatment cycles (ABTS); format: binding
Method: The enzyme used in the following example was HC1121 (T. maritima C277S-HC263; SEQ ID NO: 288) and concentration used was 2500 μg/mL (E/H=10*). Enzyme solution was made in 5% TWEEN®-20 surfactant in 50 mM citrate buffer at pH 6. Approximately 0.8 mL of the enzyme solution was applied on ˜200 mg hair samples (4 test tresses) for 10 minutes. H2O2 and triacetin, formulations were made according to Example 24, in 20% LUBRIDERM® lotion in 50 mM citrate buffer at pH 6. After application of 400 μL each of the reagents, the treatment was allowed to continue for 20 minutes after which the hair was rinsed with tap-water and allowed to dry. Before proceeding with the next cycle the sample was subjected to the surfactant wash with 5% TWEEN®-20 in 50 mM citrate buffer at pH 6 and rinsed with tap-water.
After treatment for a defined number of cycles, 10 mg of hair was cut from each tress and placed into 2 mL microcentrifuge tubes (Eppendorf Protein LoBind; Eppendorf North America, Hauppauge, N.Y.). To each tube was added 480 uL of PAH buffer (50 mM potassium phosphate pH 7.2), 14 μL of 30% hydrogen peroxide (Sigma 3410), and 6 μL triacetin (Sigma-Aldrich, W200700). The perhydrolase reaction was allowed to proceed for 10 minutes at 25° C. The reaction was stopped by diluting aliquots 10×, 100× and 1000× with 10 mM phosphoric acid. For detection, 50 μL of 1 M acetic acid, 50 μL of 40 mg/mL potassium iodide, and 50 μL of 4 mM ABTS (2,2′-azino-bis(3-ethylbenzthiazoline-6-sulphonic acid; Sigma, St Louis, Mo.) were added to 50 μL of the above dilutions. Color was allowed to develop for 10 minutes and read in a spectrophotometer at 405 nm. Values from no-enzyme controls were subtracted to yield values attributable only to enzyme activity. A standard curve of OD 405 nm vs PAA concentration in ppm yielded a conversion factor of 8.75, such that an OD 405 nm of 1.0 corresponded to approximately 8.75 ppm PAA. This value was then multiplied by the appropriate dilution to arrive at the PAA concentration in the perhydrolase reaction.

[2] = Two-step treatment of hair tresses, color loss ΔE; settings: for Color loss ΔE: 0.75 M H2O2, 1 M TA; for ΔE of color loss: 2500 μg/mL
Method: After every fourth cycle the tresses were dried under air and color measurements were made using X-RITE® SP64 spectrophotometer (X-Rite, Grandville, Mich.) with 4 mm port. Color numbers were measured at D65/10° from reflectance, according to CIELAB76. Hair tresses (all 4 replicates) were placed under a card paper with punched out holes, making sure that the background was not visible. The port-hole of the spectrophotometer was centered on the hole to scan the hair sample underneath. The tress-bundle was turned over and placed under the card and an additional measurement was made. Average L*, a*, b* (color according to CIELAB76) values were recorded.
ΔE of color loss was calculated according to the following formula:
ΔE=√{square root over (((L1*−L0)̂2+(a1*−a0)̂2+(b1*−b0)̂2))}{square root over (((L1*−L0)̂2+(a1*−a0)̂2+(b1*−b0)̂2))}{square root over (((L1*−L0)̂2+(a1*−a0)̂2+(b1*−b0)̂2))}
L1*, a1* and b1* are L*, a* and b* values for a sample tress after treatment, L0*, a0* and b0* are L*, a* and b* values for untreated hair

B1: C277S-HC263: C277S variant of Thermotoga maritima perhydrolase fused via a flexible linker to hair-binding domain HC263 (protein)
chain: MAFFDLPLEELKKYRPERYEEKDFDEFWEETLAESEKFPLDPVFERMESHLKTVEAYDVTFSGYRGQRIKGWLLVPKLEEEKLPCVVQYIGYNGGRGFPHDWLFWPSMGYICFVMDTRGQGSGWLKGDTPDYPEGPVDPQYPGFMTRGILDPRTYYYRRVFTDAVRAVEAAASFPQVDQERIVIAGGSQGGGIALAVSALSKKAKALLCDVPFLCHFRRAVQLVDTHPYAEITNFLKTHRDKEEIVFRTLSYFDGVNFAARAKIPALFSVGLMDNISPPSTVFAAYNYYAGPKEIRIYPYNNHEGGGSFQAVEQVKFLKKLFEKGGPGSGGAGSPGSAGGPGSPSAQSQLPDKHSGLHERAPQRYGPEPEPEPEPIPEPPKEAPVVIEKPKPKPKPKPKPPAHDHKNQKETHQRHAAGSGGGGSPHHHHHH
Q: Which “OD 405nm” value ([1]; 10 mg hair after 1 cycle) does the source give for B1 here?
A: The value was 0.172.

Q: What about the PAA ([1]; 10 mg hair after 1 cycle, 10 min reaction) of the same molecule?
A: Its PAA is 150.8 ppm.

Q: What about the “OD 405nm” value ([1]; 10 mg hair after 4 cycles) of the same molecule?
A: Its value is 0.439.

Q: What about the PAA ([1]; 10 mg hair after 4 cycles) of the same molecule?
A: Its PAA is 384.1 ppm.

Q: And the “OD 405nm” value ([1]; 10 mg hair after 8 cycles)?
A: Its value is 0.901.

Q: What about the PAA ([1]; 10 mg hair after 8 cycles) of the same molecule?
A: The PAA was 788.4 ppm.

Q: What about the “OD 405nm” value ([1]; 10 mg hair after 12 cycles) of the same molecule?
A: The value was 1.287.

Q: What about the PAA ([1]; 10 mg hair after 12 cycles) of the same molecule?
A: The PAA was 1126.1 ppm.

Q: What about the “OD 405nm” value ([1]; 10 mg hair after 16 cycles) of the same molecule?
A: The value was 1.894.

Q: What about the PAA ([1]; 10 mg hair after 16 cycles) of the same molecule?
A: The PAA was 1657 ppm.

Q: And the “Color loss ΔE” value ([2]; 750 μg/mL (E/H 3), 40 min/cycle)?
A: Its value is 8.

Q: What about the “Color loss ΔE” value ([2]; 1500 μg/mL (E/H 5), 20 min/cycle) of the same molecule?
A: Its value is 7.

Q: What about the “Color loss ΔE” value ([2]; 1750 μg/mL (E/H 7), 40 min/cycle) of the same molecule?
A: Its value is 10.

Q: What about the “Color loss ΔE” value ([2]; 2500 μg/mL (E/H 10), 20 min/cycle) of the same molecule?
A: The value was 10.

Q: And the “Color loss ΔE” value ([2]; 2500 μg/mL (E/H 10), 40 min/cycle)?
A: The value was 9.

Q: What about the “ΔE of color loss” value ([2]; 4 cycles) of the same molecule?
A: The value was 4.

Q: What about the “ΔE of color loss” value ([2]; 8 cycles) of the same molecule?
A: Its value is 6.

Q: And the “ΔE of color loss” value ([2]; 12 cycles)?
A: Its value is 8.

Q: What about the “ΔE of color loss” value ([2]; 16 cycles) of the same molecule?
A: Its value is 11.
